Laboratory results reported in article PMC8913300, “Two distinct classes of cochaperones compete for the EEVD motif in heat shock protein 70 to tune its chaperone activities” (The Journal of Biological Chemistry, 2022).

Assays:
[1] = molecular target: Hsp70 EEVD motif (Homo sapiens) (UniProt P0DMV8); details: cited from earlier work
[2] = molecular target: Hsp72 tracer FITC-Ahx-…; test: fluorescence polarisation; saturation binding; 20 nM fluorescent Hsp72 tracer, J-domain protein titrated in 2x dilutions (110-0.013 μM told for DnaJB4); 50 mM Tris, 15 mM NaCl, 1 mM DTT, 0.01% Triton X-100, pH 8.0; 30 min at room temperature

Sequence of DnaJB1 CTD I (P25685 161-243): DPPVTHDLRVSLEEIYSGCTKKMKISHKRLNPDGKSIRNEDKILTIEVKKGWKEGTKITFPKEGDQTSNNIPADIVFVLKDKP
Sequence of Hsp70 EEVD motif (Homo sapiens) (P0DMV8 whole entry, looked up): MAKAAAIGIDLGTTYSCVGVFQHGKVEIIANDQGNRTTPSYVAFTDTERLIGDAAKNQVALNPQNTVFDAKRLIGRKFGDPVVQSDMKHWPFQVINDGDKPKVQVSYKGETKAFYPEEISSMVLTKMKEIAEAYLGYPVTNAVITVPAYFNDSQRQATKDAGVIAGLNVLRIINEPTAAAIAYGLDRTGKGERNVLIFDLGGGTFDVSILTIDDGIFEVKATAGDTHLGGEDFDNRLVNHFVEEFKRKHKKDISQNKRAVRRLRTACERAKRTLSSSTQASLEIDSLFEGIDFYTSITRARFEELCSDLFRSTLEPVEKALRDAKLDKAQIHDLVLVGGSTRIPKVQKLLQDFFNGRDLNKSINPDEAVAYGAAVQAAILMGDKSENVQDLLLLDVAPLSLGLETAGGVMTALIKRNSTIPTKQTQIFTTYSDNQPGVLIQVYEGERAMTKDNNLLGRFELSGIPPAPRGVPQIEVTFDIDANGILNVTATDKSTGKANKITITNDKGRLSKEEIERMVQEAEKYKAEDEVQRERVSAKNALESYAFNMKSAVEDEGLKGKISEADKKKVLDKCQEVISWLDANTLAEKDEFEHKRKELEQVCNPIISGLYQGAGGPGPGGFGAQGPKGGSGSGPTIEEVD

Row | Kd [2] | Substance | Kd [1]
1 | – | DnaJB1 CTD I (from UniProt P25685) | 15 µM
2 | 2440 nM | DnaJB4 QPD mutant (from UniProt Q9UDY4 1-337) (natural protein) | –
